T1: human FcγRIIA (NM_021642) expressed on cells (human, UniProt P12318 36-317)
T1 sequence: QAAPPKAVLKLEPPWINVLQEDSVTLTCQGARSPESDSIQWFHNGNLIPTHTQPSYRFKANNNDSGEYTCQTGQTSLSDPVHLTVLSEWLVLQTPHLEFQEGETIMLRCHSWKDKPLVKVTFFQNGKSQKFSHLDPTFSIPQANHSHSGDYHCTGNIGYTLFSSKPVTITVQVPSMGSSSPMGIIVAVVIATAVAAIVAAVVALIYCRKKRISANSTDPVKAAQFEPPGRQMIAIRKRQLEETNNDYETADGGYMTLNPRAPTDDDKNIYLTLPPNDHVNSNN

T2: human OX40 expressed on HEK-Blue: OX40 cells (human, UniProt P43489 29-277)
T2 construct: also called CD134
T2 sequence: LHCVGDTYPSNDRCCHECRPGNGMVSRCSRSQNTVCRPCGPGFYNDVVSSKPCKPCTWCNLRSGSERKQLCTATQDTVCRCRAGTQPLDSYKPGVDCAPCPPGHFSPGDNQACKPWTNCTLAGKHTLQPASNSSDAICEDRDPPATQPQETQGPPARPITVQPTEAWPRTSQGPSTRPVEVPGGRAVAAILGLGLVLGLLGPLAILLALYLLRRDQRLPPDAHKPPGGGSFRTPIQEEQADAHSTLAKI

T3: human FcγRIIB (NM_004001) expressed on cells (human, UniProt P31994 43-310)
T3 construct: Transiently expressed on Expi293F cells; also called Expi293F FcγRIIB; HEK293F cells expressing FcγRIIB
T3 sequence: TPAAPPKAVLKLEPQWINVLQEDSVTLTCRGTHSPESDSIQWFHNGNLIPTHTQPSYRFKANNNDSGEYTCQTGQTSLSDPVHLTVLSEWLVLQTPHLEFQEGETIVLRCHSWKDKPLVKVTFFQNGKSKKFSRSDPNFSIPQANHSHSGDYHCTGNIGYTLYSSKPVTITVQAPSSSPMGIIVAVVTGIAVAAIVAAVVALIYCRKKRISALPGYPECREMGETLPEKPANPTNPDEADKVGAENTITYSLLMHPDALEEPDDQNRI

T4: FcγRIIA protein (human, UniProt P12318 36-217, biotinylated (SureLINK Biotin Kit) in the ELISA of Example 1)
T4 sequence: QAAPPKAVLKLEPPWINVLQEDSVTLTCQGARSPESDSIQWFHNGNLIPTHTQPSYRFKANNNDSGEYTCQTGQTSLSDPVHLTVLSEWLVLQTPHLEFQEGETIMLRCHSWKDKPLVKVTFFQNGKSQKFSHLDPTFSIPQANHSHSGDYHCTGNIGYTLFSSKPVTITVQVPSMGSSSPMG

T5: FcγRIIB protein (human, UniProt P31994 43-217, biotinylated (SureLINK Biotin Kit) in the ELISA of Example 1)
T5 sequence: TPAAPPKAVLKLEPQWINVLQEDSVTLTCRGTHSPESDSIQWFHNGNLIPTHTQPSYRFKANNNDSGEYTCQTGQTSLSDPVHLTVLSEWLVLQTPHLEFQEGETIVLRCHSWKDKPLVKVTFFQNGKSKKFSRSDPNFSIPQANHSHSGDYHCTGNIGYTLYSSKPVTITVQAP

B1: OX40SF2IgG1_R2BS29_LC-C (bispecific antibody)
heavy: not shown
light: DIQMTQSPSSLSASVGDRVTITCKASQDVGAAVAWYQQKPGKAPKLLIYWASTRHTGVPSRFSGSGSGTDFTLTISSLQPEDFATYYCQQYINYPLTFGGGTKVEIKRTVAAPSVFIFPPSDEQLKSGTASVVCLLNNFYPREAKVQWKVDNALQSGNSQESVTEQDSKDSTYSLSSTLTLSKADYEKHKVYACEVTHQGLSSPVTKSFNRGECGGGGSGGGGSGGGGSGGGGSMLPAPKNLVVSRVTEDSARLSWTAPDAAFDSFPIYYWEYRVGGEAIVLTVPGSERSYDLTGLKPGTEYFVYINGVKGGEESRPLSAIFTT
notes: mAbtyrin: wild-type IgG1 OX40SF2 with linker and R2BS29 FN3 domain at the C-terminus of the light chain; also called mAbtyrin
B2: OX40SF2IgG1_R2BS29_HC-C (bispecific antibody)
heavy: not shown
light: DIQMTQSPSSLSASVGDRVTITCKASQDVGAAVAWYQQKPGKAPKLLIYWASTRHTGVPSRFSGSGSGTDFTLTISSLQPEDFATYYCQQYINYPLTFGGGTKVEIKRTVAAPSVFIFPPSDEQLKSGTASVVCLLNNFYPREAKVQWKVDNALQSGNSQESVTEQDSKDSTYSLSSTLTLSKADYEKHKVYACEVTHQGLSSPVTKSFNRGEC
notes: mAbtyrin: wild-type IgG1 OX40SF2 with linker and R2BS29 FN3 domain at the C-terminus of the heavy chain; also called mAbtyrin
B3: OX40SF2IgG2sigma_R2BS29_LC-N (bispecific antibody)
heavy: QVQLVQSGAEVKKPGSSVKVSCKASGYTFKDYTMHWVRQAPGQGLEWIGGIYPNNGGSTYNQNFKDRVTLTADKSTSTAYMELSSLRSEDTAVYYCARMGYHGPHLDFDVWGQGTTVTVSSASTKGPSVFPLAPCSRSTSESTAALGCLVKDYFPEPVTVSWNSGALTSGVHTFPAVLQSSGLYSLSSVVTVPSSNFGTQTYTCNVDHKPSNTKVDKTVERKCCVECPPCPAPPAAASSVFLFPPKPKDTLMISRTPEVTCVVVDVSAEDPEVQFNWYVDGVEVHNAKTKPREEQFNSTFRVVSVLTVLHQDWLNGKEYKCKVSNKGLPSSIEKTISKTKGQPREPQVYTLPPSREEMTKNQVSLTCLVKGFYPSDIAVEWESNGQPENNYKTTPPMLDSDGSFFLYSKLTVDKSRWQQGNVFSCSVMHEALHNHYTQKSLSLSPGK
light: LPAPKNLVVSRVTEDSARLSWTAPDAAFDSFPIYYWEYRVGGEAIVLTVPGSERSYDLTGLKPGTEYFVYINGVKGGEESRPLSAIFTTGGGGSGGGGSGGGGSGGGGSDIQMTQSPSSLSASVGDRVTITCKASQDVGAAVAWYQQKPGKAPKLLIYWASTRHTGVPSRFSGSGSGTDFTLTISSLQPEDFATYYCQQYINYPLTFGGGTKVEIKRTVAAPSVFIFPPSDEQLKSGTASVVCLLNNFYPREAKVQWKVDNALQSGNSQESVTEQDSKDSTYSLSSTLTLSKADYEKHKVYACEVTHQGLSSPVTKSFNRGEC
notes: mAbtyrin: R2BS29 FN3 domain and linker at the N-terminus of the light chain of OX40SF2IgG2sigma; also called mAbtyrin

These binders were tested against T1, human FcγRIIA (NM_021642) expressed on … (assay: cell-based or functional assay).

Row | Binder | ADCP EC50 [µg/mL]
1 | B1 | 0.0151
2 | B2 | 0.0318
3 | B3 | 0.0089

Each binder was assayed against T6, human FcγRIIIA (NM_000569) expressed on cells (human, UniProt P08637 17-254) (assay: cell-based or functional assay).
T6 sequence (P08637 17-254 limits assumed): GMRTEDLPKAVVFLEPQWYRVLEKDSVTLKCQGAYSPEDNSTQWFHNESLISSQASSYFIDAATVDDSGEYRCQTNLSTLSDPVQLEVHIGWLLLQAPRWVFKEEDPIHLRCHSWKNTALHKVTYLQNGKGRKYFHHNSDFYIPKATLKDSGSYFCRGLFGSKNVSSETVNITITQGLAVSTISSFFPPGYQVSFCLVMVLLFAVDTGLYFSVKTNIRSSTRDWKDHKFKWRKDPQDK

Row | Binder | ADCC (fold activation) at 1 µg/ml [fold]
4 | B1 | 9
5 | B2 | 9
6 | B3 | 1

What follows are binders tested against T2, human OX40 expressed on HEK-Blue: OX40 … (assay: flow cytometry; HEK-Blue: OX40 cells).
Outline: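 HEK-Blue Null 1 cells stably transfected with human OX40 were blocked, then incubated with mAbtyrin for 1.5 h at 4 °C. Binding was detected with a PE anti-human IgG F(ab′)₂ secondary, gating on DRAQ7-excluding live cells and taking geometric mean fluorescence. EC50 came from nonlinear regression versus log antibody concentration.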

Row | Binder | EC50 [µg/mL]
7 | B1 | 0.111
8 | B2 | 0.193
9 | B3 | 0.431

Each binder was assayed against T7, human FcγRI (NM_000566) expressed on cells (human, UniProt P12314 16-374) (assay: flow cytometry; Expi293F cells transfected with FcγRI).
T7 construct: Transiently expressed on Expi293F cells
Protocol: (§1) Plasmids expressing cDNAs encoding human FcγRI (NM_000566) (SEQ ID NO: 44), FcγRIIA (NM_021642) (SEQ ID NO: 2), FcγRIIB (NM_004001) (SEQ ID NO: 3), and FcγRIIIA (NM_000569) (SEQ ID NO: 45) (Origene) were transiently transfected into Expi293F cells by ExpiFectamine293 transfection kit (Life Technologies). Flow cytometry assays were performed 48 h after transfection.
(§2) 2×10⁵ cells per well were seeded in 96-well plate and blocked in BSA Stain Buffer (BD Biosciences, San Jose, USA) for 30 min at 4° C. Cells were incubated with test mAbtyrin on ice for 1.5 h at 4° C. After being washed twice with BSA stain buffer, the cells were incubated with R-PE labeled anti-human or anti-mouse IgG secondary antibody (Jackson Immunoresearch Laboratories) for 45 min at 4° C. The cells were washed twice in stain buffer and then resuspended in 150 μL of Stain Buffer containing 1:200 diluted DRAQ7 live/dead stain (Cell Signaling Technology, Danvers, USA). PE and DRAQ7 signals of the stained cells were detected by Miltenyi MACSQuant flow cytometer (Miltenyi Biotec, Auburn, USA) using B2 and B4 channel respectively. Live cells were gated on DRAQ7 exclusion and the geometric mean fluorescence signals were determined for at least 10,000 live events collected. FlowJo software (Tree Star) was used for analysis. Data was plotted as the logarithm of antibody concentration versus mean fluorescence signals. Nonlinear regression analysis was performed by GraphPad Prism 6 (GraphPad Software, Inc.) and EC₅₀ values were calculated.

T7 sequence (P12314 16-374 limits assumed): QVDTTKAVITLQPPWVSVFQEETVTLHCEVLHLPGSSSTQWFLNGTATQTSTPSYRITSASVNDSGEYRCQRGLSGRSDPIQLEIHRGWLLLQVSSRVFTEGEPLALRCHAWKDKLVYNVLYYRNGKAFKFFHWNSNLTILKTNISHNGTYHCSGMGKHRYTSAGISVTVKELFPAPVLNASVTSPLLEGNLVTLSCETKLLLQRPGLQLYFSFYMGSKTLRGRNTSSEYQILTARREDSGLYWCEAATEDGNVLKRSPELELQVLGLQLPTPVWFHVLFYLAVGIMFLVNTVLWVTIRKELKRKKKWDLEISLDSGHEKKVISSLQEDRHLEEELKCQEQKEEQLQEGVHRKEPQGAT

Row | Binder | EC50 [µg/mL]
10 | B1 | 0.397
11 | B2 | 0.586
12 | B3 | > 10

The binders below were run against T1, human FcγRIIA (NM_021642) expressed on … (assay: flow cytometry; Expi293F cells transfected with FcγRIIA).
Protocol: as §1, §2

Row | Binder | EC50 [µg/mL]
13 | B1 | 0.066
14 | B2 | 0.063
15 | B3 | 0.046

Each binder was assayed against T3, human FcγRIIB (NM_004001) expressed on … (assay: flow cytometry; Raji cells (express predominantly FcγRIIB)).
Protocol: as §2
Raji cell is a cell line derived from B cells that express predominantly FcγRIIB. The binding of mAbtyrins on Raji cells were investigated by flow cytometry assay described for testing mAbtyrin binding to FcγR. Binding of the mAbtyrins were detected by flow cytometry using a PE-labeled Goat F(ab′) against Human IgG(γ).

Row | Binder | EC50 [µg/mL]
16 | B1 | 3.3
17 | B2 | 1.27
18 | B3 | 3.37

What follows are binders tested against T6, human FcγRIIIA (NM_000569) expressed on … (assay: flow cytometry; Expi293F cells transfected with FcγRIIIA).
Protocol: as §1, §2

Row | Binder | EC50 [µg/mL]
19 | B1 | 0.585
20 | B2 | 0.448
21 | B3 | > 10

The binders below were run against T4, FcγRIIA protein (assay: cell-based or functional assay).

Row | Binder | IFNγ production by activated CD4 T cells, plate-coated FcγRIIA [pg/mL] | TNFα production by activated CD4 T cells, plate-coated FcγRIIA [pg/mL]
22 | B1 | 125 | 33
23 | B2 | 1760 | 335
24 | B3 | 103 | 29

These binders were tested against T5, FcγRIIB protein (assay: cell-based or functional assay).

Row | Binder | IFNγ production by activated CD4 T cells, plate-coated FcγRIIb [pg/mL] | TNFα production by activated CD4 T cells, plate-coated FcγRIIb [pg/mL]
25 | B1 | 177 | 37
26 | B2 | 1370 | 250
27 | B3 | 72 | 29

What follows are binders tested against T3, human FcγRIIB (NM_004001) expressed on … (assay: cell-based or functional assay).

Row | Binder | % activity at 1 µg/ml with Raji cells (HEK-Blue: OX40 NF-κB reporter) [%]
28 | B1 | 76
29 | B2 | 90
30 | B3 | 11

These binders were tested against T3, human FcγRIIB (NM_004001) expressed on … (assay: flow cytometry; Expi293F cells transfected with FcγRIIB).
Protocol: as §1, §2

Row | Binder | EC50 [µg/mL]
31 | B1 | 1
32 | B2 | 0.968
33 | B3 | 1.02

Source: patent US20190062420A1 (Janssen / Centocor, published 2019)
